Assay results from doi:10.1101/2020.12.10.419135.

Biological target: Recombinant human glutamine synthetase (GS) (human) (UniProt P15104)
Assay: MST

UniProt P15104, sequence (P15104 whole entry): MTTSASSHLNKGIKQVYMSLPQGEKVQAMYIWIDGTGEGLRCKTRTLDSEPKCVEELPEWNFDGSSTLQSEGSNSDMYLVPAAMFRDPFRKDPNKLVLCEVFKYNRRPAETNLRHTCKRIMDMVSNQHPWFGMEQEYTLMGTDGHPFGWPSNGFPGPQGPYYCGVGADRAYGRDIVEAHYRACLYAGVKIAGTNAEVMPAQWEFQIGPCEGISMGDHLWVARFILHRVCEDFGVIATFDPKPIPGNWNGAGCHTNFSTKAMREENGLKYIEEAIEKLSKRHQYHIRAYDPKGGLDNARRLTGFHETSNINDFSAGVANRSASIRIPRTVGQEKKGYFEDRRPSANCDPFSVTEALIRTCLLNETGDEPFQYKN

For contryphan-Bt (peptide), the Kd was 74 µM.
